Paper PMC6393303

Experiments:
[1] = target: wild-type proliferating cell nuclear antigen (PCNA) (yeast) (UniProt P15873)
[2] = target: pcna-6 (DD41,42AA) mutant PCNA (yeast) (UniProt P15873)
[3] = target: wild-type proliferating cell nuclear antigen (PCNA) (yeast) (UniProt P15873); remark: listed apart in the source
[4] = target: wild-type proliferating cell nuclear antigen (PCNA) (yeast) (UniProt P15873); remark: listed apart in the source
[5] = target: pcna-6 (DD41,42AA) mutant PCNA (yeast) (UniProt P15873); remark: listed apart in the source
[6] = target: wild-type proliferating cell nuclear antigen (PCNA) (yeast) (UniProt P15873); remark: listed apart in the source

wild-type proliferating cell nuclear antigen (PCNA) (yeast), sequence (P15873 whole entry): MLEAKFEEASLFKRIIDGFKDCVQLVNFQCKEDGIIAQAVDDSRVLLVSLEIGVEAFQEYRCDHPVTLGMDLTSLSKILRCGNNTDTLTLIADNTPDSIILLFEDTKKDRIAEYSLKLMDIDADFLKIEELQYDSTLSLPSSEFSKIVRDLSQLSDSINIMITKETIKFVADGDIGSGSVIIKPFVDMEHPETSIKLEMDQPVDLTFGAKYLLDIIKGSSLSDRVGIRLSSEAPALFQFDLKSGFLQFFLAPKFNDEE
pcna-6 (DD41,42AA) mutant PCNA (yeast), sequence (P15873 other isoform, or with tags, fused parts or gaps mutant): as the sequence (P15873 whole entry) above, with D41A, D42A counted along it

Row | single-nucleotide extension rate (k fast), quench flow, 76/29 template/primer, 12°C [1] [s⁻¹] | single-nucleotide extension rate (k fast), quench flow, 76/29 template/primer, 12°C [2] [s⁻¹] | replication of the T20 template by the fastest moving complexes, quench flow, 100 mM NaCl (nucleotides per second) [3] | peak of the normalized product distribution (nucleotides incorporated) at 10 and 50 ms, single processive cycle with heparin trap [4] [nucleotides] | peak of the normalized product distribution (nucleotides incorporated) at 10 and 50 ms, single processive cycle with heparin trap [5] [nucleotides] | nucleotide incorporation rate (rate of primer disappearance, single exponential fit), quench flow, 75/29 template/primer, 300 nM mini-Pol δ-DV, 150 nM PCNA, 75 nM RFC, AMP-CPP, 100 mM NaCl, 30°C [6] [s⁻¹] | Substance
1 | 183 | 55 |  |  |  |  | DNA polymerase δ (Pol δ-DV), full-length exonuclease-deficient (D520V) heterotrimer (from UniProt P15436 1-1097; P46957 1-487; P47110 1-350) (complex)
2 |  |  | 500 | 16 | 7 | > 350 | mini-Pol δ-DV (variant DNA polymerase δ heterotrimer, exonuclease-deficient D520V) (from UniProt P15436 82-1097; P46957 1-487; P47110 1-350) (complex)
